What was measured:
Assay in all cases: co-IP (anti-FLAG) in HEK293T cells, band intensity quantified
Conditions in all cases: parent: est. 1.0; read off a plot
mouse HA-tagged M1AP = mouse HA-tagged M1AP (UniProt Q9Z0E1)
mouse HA-tagged REDIC1 = mouse HA-tagged REDIC1 (UniProt A0A087WRU1)
human HA-tagged M1AP = human HA-tagged M1AP (UniProt Q8TC57)
human HA-tagged REDIC1 = human HA-tagged REDIC1 (UniProt Q86WS4)
Chain of UniProt Q86WS4 (Q86WS4 whole entry): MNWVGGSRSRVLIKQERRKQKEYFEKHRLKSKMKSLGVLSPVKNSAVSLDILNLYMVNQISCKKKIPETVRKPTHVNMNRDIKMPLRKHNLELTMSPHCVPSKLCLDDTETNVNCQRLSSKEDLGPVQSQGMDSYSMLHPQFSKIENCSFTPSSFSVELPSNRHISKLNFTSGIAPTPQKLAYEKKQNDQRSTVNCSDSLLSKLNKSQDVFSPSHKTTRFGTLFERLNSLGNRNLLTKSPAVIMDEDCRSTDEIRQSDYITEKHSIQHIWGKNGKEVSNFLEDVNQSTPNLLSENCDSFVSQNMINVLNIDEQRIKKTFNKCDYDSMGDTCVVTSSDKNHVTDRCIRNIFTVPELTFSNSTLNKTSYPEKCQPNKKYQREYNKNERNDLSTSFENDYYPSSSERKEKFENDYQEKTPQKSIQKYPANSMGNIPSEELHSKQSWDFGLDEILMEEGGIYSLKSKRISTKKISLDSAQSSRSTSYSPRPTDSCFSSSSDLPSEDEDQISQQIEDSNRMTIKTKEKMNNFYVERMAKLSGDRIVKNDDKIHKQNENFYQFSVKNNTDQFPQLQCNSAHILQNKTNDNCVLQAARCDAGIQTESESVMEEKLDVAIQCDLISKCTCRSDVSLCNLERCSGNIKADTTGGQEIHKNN

Chain of UniProt A0A087WRU1 (A0A087WRU1 whole entry): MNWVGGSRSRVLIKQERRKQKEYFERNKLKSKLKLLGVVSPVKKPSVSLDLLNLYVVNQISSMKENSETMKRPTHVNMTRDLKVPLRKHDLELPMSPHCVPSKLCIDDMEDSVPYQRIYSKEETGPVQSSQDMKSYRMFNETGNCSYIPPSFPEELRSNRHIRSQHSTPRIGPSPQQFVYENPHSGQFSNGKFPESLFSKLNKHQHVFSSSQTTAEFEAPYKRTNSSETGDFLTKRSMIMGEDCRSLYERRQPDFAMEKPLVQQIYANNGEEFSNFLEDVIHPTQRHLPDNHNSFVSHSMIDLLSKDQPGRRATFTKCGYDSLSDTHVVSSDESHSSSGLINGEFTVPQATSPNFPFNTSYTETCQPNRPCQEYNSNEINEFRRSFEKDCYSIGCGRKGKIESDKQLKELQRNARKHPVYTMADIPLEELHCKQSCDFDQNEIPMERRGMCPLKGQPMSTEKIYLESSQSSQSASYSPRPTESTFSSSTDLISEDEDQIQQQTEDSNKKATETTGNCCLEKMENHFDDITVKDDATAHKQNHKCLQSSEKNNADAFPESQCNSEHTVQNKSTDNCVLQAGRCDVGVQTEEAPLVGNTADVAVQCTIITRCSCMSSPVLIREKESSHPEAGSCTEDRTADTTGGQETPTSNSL
Chain of UniProt Q8TC57 (Q8TC57 whole entry): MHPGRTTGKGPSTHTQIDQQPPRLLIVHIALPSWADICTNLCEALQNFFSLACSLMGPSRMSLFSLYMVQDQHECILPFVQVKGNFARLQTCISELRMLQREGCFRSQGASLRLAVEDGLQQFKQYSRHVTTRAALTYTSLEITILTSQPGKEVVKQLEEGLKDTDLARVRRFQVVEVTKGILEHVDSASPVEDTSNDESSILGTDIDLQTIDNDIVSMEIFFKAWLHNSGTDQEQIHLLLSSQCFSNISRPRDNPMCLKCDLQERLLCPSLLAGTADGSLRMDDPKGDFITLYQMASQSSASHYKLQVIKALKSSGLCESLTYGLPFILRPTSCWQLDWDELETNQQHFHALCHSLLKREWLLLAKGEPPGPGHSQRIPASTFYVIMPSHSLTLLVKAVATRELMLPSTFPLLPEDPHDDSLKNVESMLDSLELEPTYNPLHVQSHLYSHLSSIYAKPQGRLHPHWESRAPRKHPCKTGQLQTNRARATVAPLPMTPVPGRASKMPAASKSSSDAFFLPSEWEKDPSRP
Chain of UniProt Q9Z0E1 (Q9Z0E1 whole entry): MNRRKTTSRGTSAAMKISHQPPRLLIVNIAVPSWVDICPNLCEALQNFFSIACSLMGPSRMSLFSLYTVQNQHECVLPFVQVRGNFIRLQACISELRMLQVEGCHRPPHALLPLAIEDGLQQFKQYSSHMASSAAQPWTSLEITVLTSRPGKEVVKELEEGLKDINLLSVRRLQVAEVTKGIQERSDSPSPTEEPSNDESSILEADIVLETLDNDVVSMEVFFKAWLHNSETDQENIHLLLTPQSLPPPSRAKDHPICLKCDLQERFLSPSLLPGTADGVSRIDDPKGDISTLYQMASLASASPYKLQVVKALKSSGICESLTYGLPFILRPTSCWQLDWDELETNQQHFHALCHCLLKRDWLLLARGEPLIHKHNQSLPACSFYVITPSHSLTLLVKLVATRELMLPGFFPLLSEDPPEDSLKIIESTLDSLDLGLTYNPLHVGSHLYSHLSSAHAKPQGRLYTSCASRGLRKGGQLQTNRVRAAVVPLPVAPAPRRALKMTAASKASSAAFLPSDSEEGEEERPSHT

Substance | ratio to parent (mouse HA-tagged M1AP) | ratio to parent (mouse HA-tagged REDIC1) | ratio to parent (human HA-tagged M1AP) | ratio to parent (human HA-tagged REDIC1)
mouse SHOC1-XPF (WT, FLAG-tagged) Q646R | 0.5 | 1.1 |  | 
human SHOC1-XPF (WT, FLAG-tagged) Q590R |  |  | 0.44 | 1

— PMC13245411
